Experimental data taken from patent US20230272086A1 (CHIA TAI TIANQING PHARMACEUTICAL GROUP, published 2023).

T1: cynomolgus monkey ST2 antigen (Cyno-ST2-his, Sino biological, 90915-C08H) (cynomolgus monkey, UniProt Q01638 19-328 (human entry))
T1 construct: Bought protein; not shown: his tag
T1 chain: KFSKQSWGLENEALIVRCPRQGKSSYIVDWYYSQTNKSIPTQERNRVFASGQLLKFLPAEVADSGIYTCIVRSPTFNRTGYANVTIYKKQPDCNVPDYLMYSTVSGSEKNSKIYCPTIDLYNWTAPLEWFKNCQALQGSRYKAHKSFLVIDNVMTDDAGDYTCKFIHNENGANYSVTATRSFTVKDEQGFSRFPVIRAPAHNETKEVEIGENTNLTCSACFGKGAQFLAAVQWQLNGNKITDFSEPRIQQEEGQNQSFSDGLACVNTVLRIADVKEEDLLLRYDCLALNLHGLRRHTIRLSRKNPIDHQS

T2: human ST2 (hST2, Interleukin-1 receptor-like 1 isoform A) on cells (human, UniProt Q01638 19-556)
T2 sequence: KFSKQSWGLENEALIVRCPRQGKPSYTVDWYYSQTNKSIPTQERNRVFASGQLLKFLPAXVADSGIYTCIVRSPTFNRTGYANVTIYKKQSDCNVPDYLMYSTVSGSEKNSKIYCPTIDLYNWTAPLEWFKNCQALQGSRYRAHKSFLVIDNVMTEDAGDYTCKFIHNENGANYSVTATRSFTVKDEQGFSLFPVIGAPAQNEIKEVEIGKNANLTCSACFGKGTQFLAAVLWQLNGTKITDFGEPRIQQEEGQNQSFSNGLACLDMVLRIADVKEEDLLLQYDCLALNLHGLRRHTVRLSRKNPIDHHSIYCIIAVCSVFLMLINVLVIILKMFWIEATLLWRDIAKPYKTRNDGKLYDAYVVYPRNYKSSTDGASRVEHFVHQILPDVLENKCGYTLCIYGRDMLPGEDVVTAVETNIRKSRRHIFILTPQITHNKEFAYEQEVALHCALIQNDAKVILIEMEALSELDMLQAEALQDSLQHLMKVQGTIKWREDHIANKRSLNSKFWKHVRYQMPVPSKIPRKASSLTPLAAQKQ


What was measured:
[1] = biological target: T1, cynomolgus monkey ST2 antigen …; test: ELISA, plate coated with Cyno-ST2-his
Procedure: ST2 binding screening and analysis of antibodies were performed by ELISA using hST2-ECD-mFc (for assays of chimeric and humanized antibodies), hST2-ECD-hFc protein (for assays of hybridoma antibodies) and Cyno-ST2-his (Sino biological, 90915-C08H) as antigens. A high-adsorption 96-well plate (Costar, 9018) was coated with 2 µg/mL hST2-ECD-mFc or Cyno-ST2-his antigen at 100 µL/well and incubated overnight at 4° C. After the antigen not adsorbed was well washed off, the non-specific binding sites were blocked with a blocking buffer (PBS containing 2% bovine serum albumin). After the plate was washed three times with a washing buffer (PBS containing 0.05% (v/v) Tween 20), the anti-ST2 antibodies (serially diluted 3-fold from an initial concentration of 10 nM to 8 concentrations: 3.333 nM, 1.111 nM, 0.370 nM, 0.123 nM, 0.041 nM, 0.014 nM, 0.005 nM, and 0.002 nM) were added at 100 µL/well, and the plate was incubated at room temperature for 1 h. After the plate was washed with the washing buffer, a horseradish peroxidase (HRP)-conjugated secondary antibody was added, and the plate was incubated for another 60 min. After the plate was washed with the washing buffer, the substrate TMB solution (Thermo, 00-4201-56) was added at 100 µL/well, and the plate was incubated at room temperature for 2 min. A stop solution (2 N H₂SO₄) was added at 100 µL/well to terminate the reactions. Colorimetric signals were generated and read at 450 nm using a microplate reader (PE, Envision). The data were analyzed using GraphPad Prism5, and the EC₅₀ values were calculated.
The humanized antibodies hz31C81-1.1 (the amino acid sequence of the heavy chain set forth in SEQ ID NO: 75 and the amino acid sequence of the light chain set forth in SEQ ID NO: 81) and hz31C8-1.2 (the amino acid sequence of the heavy chain set forth in SEQ ID NO: 77 and the amino acid sequence of the light chain set forth in SEQ ID NO: 81) were subjected to affinity, binding, blocking and cell function analyses using the methods described in Example 4, Example 5, Example 6, Example 7, Example 8, Example 9 and Example 10.

[2] = biological target: T2, human ST2 (hST2, Interleukin-1 …); test: cell-based or functional assay
[3] = biological target: T2, human ST2 (hST2, Interleukin-1 …); test: cell-based or functional assay; remark: listed apart in the source
[4] = biological target: T2, human ST2 (hST2, Interleukin-1 …); test: cell-based or functional assay; remark: listed apart in the source

Binder	EC50 [1] [nM]	IC50, blocking of the IL33/ST2 signaling (NFκB luciferase reporter, HEK293T-hST2-NFκB-Luciferase cells, 50 pM hIL33 protein SEQ ID NO: 8) [2] [nM]	IC50, blocking of the IL33/ST2 signaling (NFκB luciferase reporter, HEK293T-hST2-NFκB-Luciferase cells) [3] [nM]	IC50, blocking of the IL33/ST2 signaling (NFκB luciferase reporter, KU812-NFκB-Luciferase cells naturally expressing hST2, 200 pM hIL33) [3]	IC50, blocking of the IL33/ST2-induced IL5 secretion on CD4+ T cells (hIL33 plus IL2 co-stimulation) [4] [nM]
Humanized 31C8-1.1 (antibody, human IgG2, kappa, V domains shown, also called hz31C8-1.1; hz31C81-1.1) VH: EVQLVQSGAEVKKPGATVKISCKASGYIFIDSEMHWVQQAPGKGLEWMGAIDPETGDTVYAEKFQGRVTITADKSSSTAYMELSSLRSEDTAVYYCTGSTTDYYFAYWGQGTLVTVSS VL: DIQMTQSPSSLSASVGDRVTITCRSSKSLLHSNGIIYLYWYQQKPGKAPKLLIYQLSNLASGVPSRFSSSGSGTDFTLTISSLQPEDFATYYCAQNLELPFTFGQGTKVEIKR	0.0716	–	15.9	8 pM	–
Chimeric 31C8 (antibody, human IgG2, kappa, V domains shown, also called xi31C8) VH: QVQLQQSGPELVRPGASVTLSCKASGYIFIDSEMHWVKQTPVHGLEWIGAIDPETGDTVYNQKFKGKATLTADKSSSTASMELSSLTSEDSAVYYCTGSTTDYYFAYWGQGTTLTVSS VL: DIVMTQAAFSNPVTLGTSASISCRSSKSLLHSNGIIYLYWYLQKPGQSPQLLIYQMSNLASGVPDRFSSSGSGTDFTLRISRVEAEDVGVYYCAQNLELPFTFGSGTKLEIKR	0.069	2.53	15.6	16 pM	0.09
Chimeric 3C6 (antibody, human IgG2, kappa, V domains shown, also called xi3C6) VH: QVQLQQSGAEVVRPGASVTLSCKASDYTITDYEMHWVKQTPVHGLEWIGAIDPETGDTAYSQNFKGKATLTADESSSTAYMELSSLTSEDSAVYYCSRSATDYYFASWGQGTTLTVSS VL: DIVMTQAAISNPVTLGTSASMSCRSSKSLLHSNGITYLYWYLQKPGHSPQLLIYQMSNLASGVPDRFSSSGSGTDFTLKISRVEAEDVGVYYCAQNLELPFTFGSGTKLEIKR	–	0.673	–	–	–
Chimeric 26A1 (antibody, human IgG2, kappa, V domains shown, also called xi26A1) VH: QVQLQQSGAELVRPGASVTLSCKASDYIFTDSEIHWVKQTLVHGLEWIGAIDPETGDTAYNQKFKGKATLTADKSSSTAYMELSSLTSEGSAVYYCSGSTTDCYFAYWGQGTTLTVSS VL: DIVMTQAAFSNPVTLGTSASISCRSSKSLLHSNGIIYLYWYLQKPGQSPQLLIYQMSNLASGVPDRFSSSGSGTDFTLRISRVEAEDVGVYYCAQNLELPFTFGSGTKLEIKR	–	7.57	–	–	–
Chimeric 7D1 (antibody, human IgG2, kappa, V domains shown, also called xi7D1) VH: QVQLQQSGAELVRPGASVTLSCKASGYTFTDYEMHWVKQTPVHGLDWIGTIDPETGDTAYNQKFKGRATLTADKSSSTAYMELSSLTSEDSAVYYCTRYSYTNSPYGMDYWGQGTSVTVSS VL: DVVMTQTPKFLLVSAGDRVTITCKASQSVSNDVAWYQQKPGQSPKLLIYYASNRYTGVPDRFTGSGYGTDFTFTINTVQAEDLAVYFCQQDYSSPYTFGGGTKLEIKR	–	0.12	–	–	0.12
Chimeric 17E2 (antibody, human IgG2, kappa, V domains shown, also called xi17E2) VH: QVQLQQSGAELVRPGASVTLSCKASGYTFTDYEMHWVKQTPVLGLEWIGAIDPETGDTAYNQKFKGKATLTADKSSSTAYMELSSLASEDSAVYYCIRVDSNYDYFDYWGQDTTLTVSS VL: DIVLTQSPPILSASPGEKVTMTCRASSSVSYMHWYQQKPGSSPKPWIYDTSNLASGVPARFSGSGSGTSYSLTISRVEAEDAATYYCQQWSSNPLTFGAGTKLELKR	–	–	–	–	0.08

More lines, now with the values ahead:

EC50 [1] [nM]	IC50, blocking of the IL33/ST2 signaling (NFκB luciferase reporter, HEK293T-hST2-NFκB-Luciferase cells, 50 pM hIL33 protein SEQ ID NO: 8) [2] [nM]	IC50, blocking of the IL33/ST2 signaling (NFκB luciferase reporter, HEK293T-hST2-NFκB-Luciferase cells) [3] [nM]	IC50, blocking of the IL33/ST2 signaling (NFκB luciferase reporter, KU812-NFκB-Luciferase cells naturally expressing hST2, 200 pM hIL33) [3]	IC50, blocking of the IL33/ST2-induced IL5 secretion on CD4+ T cells (hIL33 plus IL2 co-stimulation) [4] [nM]	Binder
0.178	11.9	84.3	47 pM	0.32	RG6149 (antibody Ab2 in CN104334582, prepared in-house) (antibody, human IgG2, kappa, V domains shown, Control anti-ST2 antibody) VH: EVQLVQSGAEVKKPGESLKISCKGSGYSFTNYWIGWVRQMPGKGLEWMGIIYPGNSDTRFSPSFQGQVTISADKSITTAYLQWSSLKASDTAMYYCARHGTSSDYYGLDVWGQGTTVTVSS VL: not shown
0.242	–	29.2	0.111 nM	–	GSK3772847 (antibody STLM208 in CN104411333, prepared in-house) (antibody, human IgG2, kappa, V domains shown, Control anti-ST2 antibody) VH: EVQLLESGGGLVQPGGSLRLSCAASGFTFSIYDMIWVRQAPGKGLEWVSSIRGEGGGTYYADSVKGRFTISRDNSKNTLYLQMNSLRAEDTAVYYCARDPWSTEGSFFVLDYWGQGTLVTVSS VL: EIVLTQSPATLSLSPGERATLSCRASQSVDDDLAWYQQKPGQAPRLLIYDASNRATGIPARFSGSGSGTDFTLTISSLEPEDFAVYYCQQYITAPLTFGQGTKVEIKR
0.0746	–	20.4	6 pM	–	Humanized 31C8-1.2 (antibody, human IgG2, kappa, V domains shown, also called hz31C8-1.2; hz31C81-1.2) VH: QVQLVQSGAKVKKPGATVKISCKASGYIFIDSEMHWVQQAPGKGLEWMGAIDPETGDTVYAKKFKGRVTITADKSSSTAYMELSSLRSEDTAVYYCTGSTTDYYFAYWGQGTLVTVSS VL: DIQMTQSPSSLSASVGDRVTITCRSSKSLLHSNGIIYLYWYQQKPGKAPKLLIYQLSNLASGVPSRFSSSGSGTDFTLTISSLQPEDFATYYCAQNLELPFTFGQGTKVEIKR
